Measurements from patent publication US20080313749A1.

What was measured:
[1] = target: … (SEQ ID NO:107), scaffold-bound CCR5-derived peptide 1159; assay: peptide microarray ELISA, 2D7 at 0.1 µg/ml
[2] = target: … (SEQ ID NO:109), scaffold-bound CCR5-derived peptide 1158; assay: peptide microarray ELISA, 2D7 at 0.1 µg/ml
[3] = target: … (SEQ ID NO:103), scaffold-bound CCR5-derived peptide 449; assay: peptide microarray ELISA, 2D7 at 0.1 µg/ml
[4] = target: … (SEQ ID NO:108), scaffold-bound CCR5-derived peptide 719; assay: peptide microarray ELISA, 2D7 at 0.1 µg/ml
Chain of … (SEQ ID NO:108), scaffold-bound CCR5-derived peptide 719 (peptide, as listed by the source): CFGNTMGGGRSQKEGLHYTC

[5] = target: … (SEQ ID NO:101), scaffold-bound CCR5-derived peptide 447; assay: peptide microarray ELISA, 2D7 at 0.1 µg/ml
[6] = target: … (SEQ ID NO:102), scaffold-bound CCR5-derived peptide 443; assay: peptide microarray ELISA, 2D7 at 0.1 µg/ml
[7] = target: … (SEQ ID NO:105), scaffold-bound CCR5-derived peptide 450; assay: peptide microarray ELISA, 2D7 at 0.1 µg/ml
[8] = target: … (SEQ ID NO:106), scaffold-bound CCR5-derived peptide 702; assay: peptide microarray ELISA, 2D7 at 0.1 µg/ml
[9] = target: … (SEQ ID NO:104), scaffold-bound CCR5-derived peptide 1160; assay: peptide microarray ELISA, 2D7 at 0.1 µg/ml
[10] = target: … (SEQ ID NO:107), scaffold-bound CCR5-derived peptide 1159; assay: peptide microarray ELISA, 2D7 at 10 µg/ml
[11] = target: … (SEQ ID NO:109), scaffold-bound CCR5-derived peptide 1158; assay: peptide microarray ELISA, 2D7 at 10 µg/ml
[12] = target: … (SEQ ID NO:103), scaffold-bound CCR5-derived peptide 449; assay: peptide microarray ELISA, 2D7 at 10 µg/ml
[13] = target: … (SEQ ID NO:108), scaffold-bound CCR5-derived peptide 719; assay: peptide microarray ELISA, 2D7 at 10 µg/ml
[14] = target: … (SEQ ID NO:101), scaffold-bound CCR5-derived peptide 447; assay: peptide microarray ELISA, 2D7 at 10 µg/ml
[15] = target: … (SEQ ID NO:102), scaffold-bound CCR5-derived peptide 443; assay: peptide microarray ELISA, 2D7 at 10 µg/ml
[16] = target: … (SEQ ID NO:105), scaffold-bound CCR5-derived peptide 450; assay: peptide microarray ELISA, 2D7 at 10 µg/ml
[17] = target: … (SEQ ID NO:106), scaffold-bound CCR5-derived peptide 702; assay: peptide microarray ELISA, 2D7 at 10 µg/ml
[18] = target: … (SEQ ID NO:104), scaffold-bound CCR5-derived peptide 1160; assay: peptide microarray ELISA, 2D7 at 10 µg/ml
[19] = target: … (SEQ ID NO:107), scaffold-bound CCR5-derived peptide 1159; assay: peptide microarray ELISA, 2D7 at 1 µg/ml
[20] = target: … (SEQ ID NO:109), scaffold-bound CCR5-derived peptide 1158; assay: peptide microarray ELISA, 2D7 at 1 µg/ml
[21] = target: … (SEQ ID NO:103), scaffold-bound CCR5-derived peptide 449; assay: peptide microarray ELISA, 2D7 at 1 µg/ml
[22] = target: … (SEQ ID NO:108), scaffold-bound CCR5-derived peptide 719; assay: peptide microarray ELISA, 2D7 at 1 µg/ml
[23] = target: … (SEQ ID NO:101), scaffold-bound CCR5-derived peptide 447; assay: peptide microarray ELISA, 2D7 at 1 µg/ml
[24] = target: … (SEQ ID NO:102), scaffold-bound CCR5-derived peptide 443; assay: peptide microarray ELISA, 2D7 at 1 µg/ml
[25] = target: … (SEQ ID NO:105), scaffold-bound CCR5-derived peptide 450; assay: peptide microarray ELISA, 2D7 at 1 µg/ml
[26] = target: … (SEQ ID NO:106), scaffold-bound CCR5-derived peptide 702; assay: peptide microarray ELISA, 2D7 at 1 µg/ml
[27] = target: … (SEQ ID NO:104), scaffold-bound CCR5-derived peptide 1160; assay: peptide microarray ELISA, 2D7 at 1 µg/ml

microarray ELISA signal (absorbance 405 nm, CCD camera) [1]: 213
microarray ELISA signal (absorbance 405 nm, CCD camera) [2]: 132
microarray ELISA signal (absorbance 405 nm, CCD camera) [3]: 99
microarray ELISA signal (absorbance 405 nm, CCD camera) [4]: 113
microarray ELISA signal (absorbance 405 nm, CCD camera) [5]: 261
microarray ELISA signal (absorbance 405 nm, CCD camera) [6]: 148
microarray ELISA signal (absorbance 405 nm, CCD camera) [7]: 107
microarray ELISA signal (absorbance 405 nm, CCD camera) [8]: 68
microarray ELISA signal (absorbance 405 nm, CCD camera) [9]: 315
microarray ELISA signal (absorbance 405 nm, CCD camera) [10]: 2640
microarray ELISA signal (absorbance 405 nm, CCD camera) [11]: 2380
microarray ELISA signal (absorbance 405 nm, CCD camera) [12]: 2890
microarray ELISA signal (absorbance 405 nm, CCD camera) [13]: 2820
microarray ELISA signal (absorbance 405 nm, CCD camera) [14]: 2940
microarray ELISA signal (absorbance 405 nm, CCD camera) [15]: 3090
microarray ELISA signal (absorbance 405 nm, CCD camera) [16]: 2850
microarray ELISA signal (absorbance 405 nm, CCD camera) [17]: 2790
microarray ELISA signal (absorbance 405 nm, CCD camera) [18]: 2760
microarray ELISA signal (absorbance 405 nm, CCD camera) [19]: 1150
microarray ELISA signal (absorbance 405 nm, CCD camera) [20]: 416
microarray ELISA signal (absorbance 405 nm, CCD camera) [21]: 2610
microarray ELISA signal (absorbance 405 nm, CCD camera) [22]: 678
microarray ELISA signal (absorbance 405 nm, CCD camera) [23]: 2710
microarray ELISA signal (absorbance 405 nm, CCD camera) [24]: 2640
microarray ELISA signal (absorbance 405 nm, CCD camera) [25]: 2360
microarray ELISA signal (absorbance 405 nm, CCD camera) [26]: 1580
microarray ELISA signal (absorbance 405 nm, CCD camera) [27]: 2470
Substance: anti-CCR5 antibody 2D7
